This is an account of results in patent US20150344570A1 (published 2015).

Assay [1] has as its target T1, FcγRIa (human, UniProt P12314 16-292).
T1 construct: extracellular domain; soluble His-tagged extracellular domain expressed in FreeStyle293 cells, used as analyte in Biacore; also called FcgRI; CD64
The assay is described as follows: SPR (Biacore), captured antibody, FcγRIa analyte; relative to GpH7-B3/GpL16-k0. For orientation: SPR reads the build-up and loss of mass on a sensor chip optically.

In assay [2] the target is T1, FcγRIa. The assay is described as follows: SPR (Biacore), captured antibody, FcγRIa analyte; relative to GpH7-A5/GpH7-B3/GpL16-k0.

T1 sequence (P12314 16-292): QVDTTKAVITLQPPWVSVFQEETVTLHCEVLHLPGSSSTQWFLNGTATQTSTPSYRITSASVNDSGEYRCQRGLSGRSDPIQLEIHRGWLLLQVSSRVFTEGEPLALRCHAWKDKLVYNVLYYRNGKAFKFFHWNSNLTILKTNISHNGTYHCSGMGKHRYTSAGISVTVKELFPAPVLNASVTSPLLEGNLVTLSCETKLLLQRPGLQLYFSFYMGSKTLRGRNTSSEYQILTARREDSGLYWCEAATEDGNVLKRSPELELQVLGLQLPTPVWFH

B1: GpH7-B3 variant Y300_20W/GpL16-k0 (antibody, human IgG1, kappa)
heavy: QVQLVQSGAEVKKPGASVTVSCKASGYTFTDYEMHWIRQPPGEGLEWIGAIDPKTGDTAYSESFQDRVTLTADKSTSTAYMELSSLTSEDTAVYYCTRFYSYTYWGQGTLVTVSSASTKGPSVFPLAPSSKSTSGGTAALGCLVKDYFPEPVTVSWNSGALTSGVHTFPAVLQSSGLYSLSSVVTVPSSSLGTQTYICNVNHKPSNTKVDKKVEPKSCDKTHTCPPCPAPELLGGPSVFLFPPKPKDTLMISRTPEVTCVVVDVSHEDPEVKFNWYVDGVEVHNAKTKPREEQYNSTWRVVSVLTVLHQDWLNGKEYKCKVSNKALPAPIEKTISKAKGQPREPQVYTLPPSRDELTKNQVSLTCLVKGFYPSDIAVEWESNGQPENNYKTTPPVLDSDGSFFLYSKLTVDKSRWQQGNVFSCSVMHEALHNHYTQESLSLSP
light: DIVMTQSPLSLPVTPGEPASISCQASESLVHSNRNTYLHWYLQKPGQSPQLLIYKVSNRFSGVPDRFSGSGSGTDFTLKISRVEAEDVGVYYCSQNTHVPPTFGQGTKVEIERTVAAPSVFIFPPSDEQLKSGTASVVCLLNNFYPREAKVQWKVDNALQSGNSQESVTEQDSKDSTYSLSSTLTLSKADYEKHKVYACEVTHQGLSSPVTKSFNRGEC
notes: homodimerized IgG1, mutation in both H chains; also called Ho Ab
As to B1, the Ho/Con_1a with FcγRIa [1] was 110 relative, control = 100.

B2: GpH7-A5/GpH7-B3 variant I336_08L/GpL16-k0 (antibody, human IgG1, kappa)
heavy 1: not shown
heavy 2: not shown
light: DIVMTQSPLSLPVTPGEPASISCQASESLVHSNRNTYLHWYLQKPGQSPQLLIYKVSNRFSGVPDRFSGSGSGTDFTLKISRVEAEDVGVYYCSQNTHVPPTFGQGTKVEIERTVAAPSVFIFPPSDEQLKSGTASVVCLLNNFYPREAKVQWKVDNALQSGNSQESVTEQDSKDSTYSLSSTLTLSKADYEKHKVYACEVTHQGLSSPVTKSFNRGEC
notes: heterodimerized IgG1, mutation in one H chain only; also called He Ab
Regarding B2, in the assay with FcγRIa [2], the He/Con_1a is 107 relative, control = 100.

B3: GpH7-B3 variant Y300_19Q/GpL16-k0 (antibody, human IgG1, kappa)
heavy: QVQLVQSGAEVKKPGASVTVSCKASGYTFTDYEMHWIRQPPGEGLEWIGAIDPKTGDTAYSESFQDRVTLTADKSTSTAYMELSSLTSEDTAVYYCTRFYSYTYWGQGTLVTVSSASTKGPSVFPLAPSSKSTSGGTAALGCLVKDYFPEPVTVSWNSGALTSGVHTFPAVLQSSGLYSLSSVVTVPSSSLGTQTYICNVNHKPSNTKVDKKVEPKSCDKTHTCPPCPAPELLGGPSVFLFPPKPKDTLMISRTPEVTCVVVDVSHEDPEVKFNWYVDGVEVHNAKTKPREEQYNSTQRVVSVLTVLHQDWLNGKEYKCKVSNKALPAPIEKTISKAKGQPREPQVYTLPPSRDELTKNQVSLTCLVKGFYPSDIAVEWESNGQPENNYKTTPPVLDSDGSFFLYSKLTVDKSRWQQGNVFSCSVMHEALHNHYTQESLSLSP
light: DIVMTQSPLSLPVTPGEPASISCQASESLVHSNRNTYLHWYLQKPGQSPQLLIYKVSNRFSGVPDRFSGSGSGTDFTLKISRVEAEDVGVYYCSQNTHVPPTFGQGTKVEIERTVAAPSVFIFPPSDEQLKSGTASVVCLLNNFYPREAKVQWKVDNALQSGNSQESVTEQDSKDSTYSLSSTLTLSKADYEKHKVYACEVTHQGLSSPVTKSFNRGEC
notes: as for B1
Consider B3, for which, in the assay with FcγRIa [1], the Ho/Con_1a is 110 relative, control = 100.

B4: GpH7-A5/GpH7-B3 variant I336_13S/GpL16-k0 (antibody, human IgG1, kappa)
heavy 1: not shown
heavy 2: not shown
light: DIVMTQSPLSLPVTPGEPASISCQASESLVHSNRNTYLHWYLQKPGQSPQLLIYKVSNRFSGVPDRFSGSGSGTDFTLKISRVEAEDVGVYYCSQNTHVPPTFGQGTKVEIERTVAAPSVFIFPPSDEQLKSGTASVVCLLNNFYPREAKVQWKVDNALQSGNSQESVTEQDSKDSTYSLSSTLTLSKADYEKHKVYACEVTHQGLSSPVTKSFNRGEC
notes: as for B2
In the case of B4, the He/Con_1a in the assay with FcγRIa [2] was 102 relative, control = 100.

B5: GpH7-A5/GpH7-B3 variant H268_10E/GpL16-k0 (antibody, human IgG1, kappa)
heavy 1: not shown
heavy 2: not shown
light: DIVMTQSPLSLPVTPGEPASISCQASESLVHSNRNTYLHWYLQKPGQSPQLLIYKVSNRFSGVPDRFSGSGSGTDFTLKISRVEAEDVGVYYCSQNTHVPPTFGQGTKVEIERTVAAPSVFIFPPSDEQLKSGTASVVCLLNNFYPREAKVQWKVDNALQSGNSQESVTEQDSKDSTYSLSSTLTLSKADYEKHKVYACEVTHQGLSSPVTKSFNRGEC
notes: as for B2
Regarding B5, the He/Con_1a with FcγRIa [2] is 111 relative, control = 100.

B6: GpH7-A5/GpH7-B3 variant D265_10E/GpL16-k0 (antibody, human IgG1, kappa)
heavy 1: not shown
heavy 2: not shown
light: DIVMTQSPLSLPVTPGEPASISCQASESLVHSNRNTYLHWYLQKPGQSPQLLIYKVSNRFSGVPDRFSGSGSGTDFTLKISRVEAEDVGVYYCSQNTHVPPTFGQGTKVEIERTVAAPSVFIFPPSDEQLKSGTASVVCLLNNFYPREAKVQWKVDNALQSGNSQESVTEQDSKDSTYSLSSTLTLSKADYEKHKVYACEVTHQGLSSPVTKSFNRGEC
notes: as for B2
As for B6, in the assay with FcγRIa [2], the He/Con_1a was 101 relative, control = 100.

B7: GpH7-A5/GpH7-B3 variant H268_18N/GpL16-k0 (antibody, human IgG1, kappa)
heavy 1: not shown
heavy 2: not shown
light: DIVMTQSPLSLPVTPGEPASISCQASESLVHSNRNTYLHWYLQKPGQSPQLLIYKVSNRFSGVPDRFSGSGSGTDFTLKISRVEAEDVGVYYCSQNTHVPPTFGQGTKVEIERTVAAPSVFIFPPSDEQLKSGTASVVCLLNNFYPREAKVQWKVDNALQSGNSQESVTEQDSKDSTYSLSSTLTLSKADYEKHKVYACEVTHQGLSSPVTKSFNRGEC
notes: as for B2
As to B7, in the assay with FcγRIa [2], the He/Con_1a was 108 relative, control = 100.

B8: GpH7-A5/GpH7-B3 variant A330_19Q/GpL16-k0 (antibody, human IgG1, kappa)
heavy 1: not shown
heavy 2: not shown
light: DIVMTQSPLSLPVTPGEPASISCQASESLVHSNRNTYLHWYLQKPGQSPQLLIYKVSNRFSGVPDRFSGSGSGTDFTLKISRVEAEDVGVYYCSQNTHVPPTFGQGTKVEIERTVAAPSVFIFPPSDEQLKSGTASVVCLLNNFYPREAKVQWKVDNALQSGNSQESVTEQDSKDSTYSLSSTLTLSKADYEKHKVYACEVTHQGLSSPVTKSFNRGEC
notes: as for B2
For the molecule B8, in the assay with FcγRIa [2], the He/Con_1a is 105 relative, control = 100.

B9: GpH7-A5/GpH7-B3 variant I336_14T/GpL16-k0 (antibody, human IgG1, kappa)
heavy 1: not shown
heavy 2: not shown
light: DIVMTQSPLSLPVTPGEPASISCQASESLVHSNRNTYLHWYLQKPGQSPQLLIYKVSNRFSGVPDRFSGSGSGTDFTLKISRVEAEDVGVYYCSQNTHVPPTFGQGTKVEIERTVAAPSVFIFPPSDEQLKSGTASVVCLLNNFYPREAKVQWKVDNALQSGNSQESVTEQDSKDSTYSLSSTLTLSKADYEKHKVYACEVTHQGLSSPVTKSFNRGEC
notes: as for B2
For the molecule B9, the He/Con_1a with FcγRIa [2] is 104 relative, control = 100.

B10: GpH7-A5/GpH7-B3 variant H268_09D/GpL16-k0 (antibody, human IgG1, kappa)
heavy 1: not shown
heavy 2: not shown
light: DIVMTQSPLSLPVTPGEPASISCQASESLVHSNRNTYLHWYLQKPGQSPQLLIYKVSNRFSGVPDRFSGSGSGTDFTLKISRVEAEDVGVYYCSQNTHVPPTFGQGTKVEIERTVAAPSVFIFPPSDEQLKSGTASVVCLLNNFYPREAKVQWKVDNALQSGNSQESVTEQDSKDSTYSLSSTLTLSKADYEKHKVYACEVTHQGLSSPVTKSFNRGEC
notes: as for B2
Consider B10, for which the He/Con_1a in the assay with FcγRIa [2] is 110 relative, control = 100.

B11: GpH7-A5/GpH7-B3 variant A330_20W/GpL16-k0 (antibody, human IgG1, kappa)
heavy 1: not shown
heavy 2: not shown
light: DIVMTQSPLSLPVTPGEPASISCQASESLVHSNRNTYLHWYLQKPGQSPQLLIYKVSNRFSGVPDRFSGSGSGTDFTLKISRVEAEDVGVYYCSQNTHVPPTFGQGTKVEIERTVAAPSVFIFPPSDEQLKSGTASVVCLLNNFYPREAKVQWKVDNALQSGNSQESVTEQDSKDSTYSLSSTLTLSKADYEKHKVYACEVTHQGLSSPVTKSFNRGEC
notes: as for B2
As to B11, the He/Con_1a with FcγRIa [2] was 108 relative, control = 100.
